Experimental data from the DeepSol protein solubility set.

test: soluble on expression in E. coli; label from the status in PepcDB or PDB records

Row | Sequence | soluble on expression in E. coli
1 | MSLASGNTLTYGLVVPDISNPFFASMARALQREAFNHGRVLLLGDAGDDRQHEHDLINHLLRRQVDGLLYTSVDRHPWFDLIRNSGTPCVMIDTIDSHAGISAIRVNERDAACQATRHLLQHGYRELGIFVGPLTMLNAQDRLNGWRDALIEAGITPREEWIFEAPYTRKGGYQASQKMLQGPCPRAIFTSNEQQALGCLSALAEHQLRVPDDLAIICFNGTQQSEFSVPPLSAVEQPIDAMARQAIAMLATGTAQPELHEFAFQLHIRRSEGHHHHHH | soluble
2 | MSNIAKTSEALQARIRELCGDQLREVGTHPGHWDDSAVRHIVRNPPAAYVVWLGHVPGEHPHVVQARWAVYVVANVLDGQRQNDPGIYQLVEKLSAGLHRCRIAPSGTFDVVLRQAAHLSCYRCKTCGPIRKAAWAWRFTACILKRRNRAITGEMMAQTKITLLAPHKHAGKQYQAGEVLSVDEQSAKFILNMGIGKPAEPVRKNPKLNTEDKQNAK | not soluble
3 | MGMKFRVVCRKLYDYVRYDLKEIAFPSSLPDPPHIKKRPKLTLKDKWCILKEATRLYGASWVRDIGPDLRPNDYKKVKEEPDIKTEEGSSEPTTVEDLLGALKGGAEKAKPALQRMYMARASNYTDALKNYVESYKEGLKEHLEEEAMGKGHRQGNDATKPPQSPSS | soluble
4 | MGSDKIHHHHHHMSPMTIPSEMKALLLVGDGYTKTPSGSALEAMEPYLEQGRIAVPAPGPSQVLIKVNLASINPSDVAFIKGQYGQPRVKGRPAGFEGVGTIVAGGDEPYAKSLVGKRVAFATGLSNWGSWAEYAVAEAAACIPLLDTVRDEDGAAMIVNPLTAIAMFDIVKQEGEKAFVMTAGASQLCKLIIGLAKEEGFRPIVTVRRDEQIALLKDIGAAHVLNEKAPDFEATLREVMKAEQPRIFLDAVTGPLASAIFNAMPKRARWIIYGRLDPDATVIREPGQLIFQHKHIEGFWLSEWMRQFKERRGPAILEAQKRFSDGRWSTDVTAVVPLAEAIAWVPAELTKPNGKVFIRP | not soluble
5 | MGKTFTVGSLKHAVRSSERPISAAPPKPDGPSAVRPSVIQIEQKGKTFTVQPAPGVSLLDAALGQGVLLDHKCKKGTCGRCMVTVLAGAHLLAPKTRREREKTDQPAKRLACQAQIQ | not soluble
6 | MAHHHHHHMEPNADEPKKTSSVRQLLRQQRELQEMRKFGLAPLAVDTETHQEISPNIPEFISRAPWYYGATGPTLVHQRKQGDSATEVSDEVLDEKVDRIVVKGQASRFTAGACKNCGSRTHKTSECFQAKKKVGSVYTNRVTGSDIETHQEAKTYSQKRDRFVGEVGIDLMRGVRQDQQDDNVDVAAPATARHRPEDVFGSRTAQHGGVEVKELPKYLHNLDQQDGLFFDPKTGSMRANPNSGDSTKAFRGDLERYRTGDYYNYVESQYRFLTGQSRSFVDFEFDDAMRRAREQQQEPQQQEQNSTRGPVTKVLTETPQDVLLRSLYGASQPKFDSDVLPSFTTESKTSAPSSSPAPPVDALATTATATVTAHSSVQAASLSWVTTRNGHAAVYGSYFDPIHFRWGYACCKRMGKDTTGCSATHA | soluble
7 | MGSDKIHHHHHHMKRPLQTWLTESWLAFSRLLTFHILERRLFEHSGRIPYEPQPGNLLYVAASVLPYHTSGYTTRTHEVVCALNKAGARVHVLTRPGYPWDRKDRLCDPVSEETTVGDMCYRHAQAPANNRPVLQYALQAARVVAESAVRHRVAVIHAASNHVNALPALLAARQLGIPFQYEMRGLWELTRISRQPGYEDSQAYKQGLQLEGLVARHADRLFVISEQLGKYVQTNWDIDAGRMALLPNCVDPERFLIADPQQIESNTIGYAGSLMGYEGLDTLIDAVDILVRSGSSVRVVIIGDGEARPQLETRVQRLGLSERIYFSGKMPPDAAREKLARCALVCIPRKPFKVCEIVPPIKLVEALAMGKPVIVPDLPVFRDELGDDPAGWFFRSGDAADLAHVIEAALGNEEKLREMSDQARDYVLAKRCWHRFVDKMAKPYDS | not soluble
8 | MGSDKIHHHHHHMWIWQQADWPKFHWNTSSIDALLRQVYFNQGQLLGKQMLSHDDSLLTSDAALDTLLANIIHSSAIEGEKLNAASVRSSLAKKLGVTEDKPYPTTAQTDGLADIMLDALKNLETELTLERILGWHQQLFPQGYTLFNPVIGGTLRGDTPMQVVSGRIDKPTVHFEAPSRATLDAELSQFIEWFNASRQDLGLDPLIRAAITHLWFVTLHPLDDGNGRITRLLTDLALAQAEKRSIRFYAMSVSILARRQAYYDILESTQRGDVDITPWLVWFFETLNDCLLNAMADVSRTLSKTQYWQSVDQSLLSQEQAKVLNRMLDGDFELGINSSQYQKVAKVSRATATRHLAQMVEQRFLVKADAGGRSTRYLLPSGK | not soluble
9 | MKIGIVTGIPGVGKSTVLAKVKEILDNQGINNKIINYGDFMLATALKLGYAKDRDEMRKLSVEKQKKLQIDAAKGIAEEARAGGEGYLFIDTHAVIRTPSGYLPGLPSYVITEINPSVIFLLEADPKIILSRQKRDTTRNRNDYSDESVILETINFARYAATASAVLAGSTVKVIVNVEGDPSIAANEIIRSMK | soluble
10 | MPILGHNILKIEFEKLQTLGGKIEVSLRPTIRNLRLGEMHLPSGKVKGIEVDVDYIITYSPEVARASIKVRVFYVPRNKEDIDNILDEWEDRKVLPGELVAEVVNFTTSELMPIAMYIAKEMRIPYPVPLPRAVVRGE | soluble
11 | MQIGANSLLQEMQSLKGEVTPSFGISPNNIVQQVNNTSGADFGQLLSQAIGNVSGLQSTSSNLATRLDMGDTTVSLSDSVIAREKASVAFEATIQVRNKLVEAYKEIMSMPV | not soluble
12 | MGSDKIHHHHHHMKVTTISIDLAKNVFQVLGMDCHAKQVFNKRLNRTQLTEFMLQQPNCDVVFEACYSSHYWGRKFLAMGHNVKLIPAQHVTPFVRGSKNDNNDTMAIYEASFRPNIRFVPVKTEEQQEILMLHRIRERLVKEKTACTNQIRGVLVDFGICFAQGYKAFEVAIWDIINDASQRPIIKLMANDFWGEYQSVNTRLDRINTLIKKLIERDPNGKILLSIPGVGPIIASAFVASIGRGQAFNTAKELGVWLGLTPKQFASGHRSVNGSITKRGNGYLRKQLIHGARAVVSHASKKQDDLNLWIMQLRSRKSICSTVVATAHRLARLIWILLQKQVPYVPQYAANQGVNHGTC | not soluble
13 | AKITKVQVGEALVGDGNEVAHIDLIIGPRGSPAETAFCNGLVNNKHGFTSLLAVIAPNLPCKPNTLMFNKVTINDARQAVQMFGPAQHGVAMAVQDAVAEGIIPADEADDLYVLVGVFIHWEAADDAKIQKYNYEATKLSIQRAVNGEPKASVVTEQRKSATHPFAANA | soluble
14 | MEIPTAKPQKEHEFLNRIVGDWIMTASSGHEAYDPNDPEQVFIEKVRSIGGLWIIGEGTGKMPDGTSMTAVITVGFDPAKGNFVGTWVGSMMTNLWVYKGWLEEDGKTLTLEAEGPAFDGSGDTATYHDVLVLHDDNHRSFSGSVKQPDGTFKTFMTSEFRRKT | soluble
15 | MGSDKIHHHHHHGASVQDLSNTKDAIVESETTLAENNNEYSNKNSLFYSDISSYEIFTDVNSEAALKNLYYNIDEFIDSDSSDVIVKGNIIEIEYVYIDGCSYSVLTVDVERAYKGEVQETITVYEDGGYTRLSDEKEQIEAHADLSQYTEEEMENLLINHTFMGAEHSNVGDTVILFLKTNEGSILGDSYRINCSVFGRYTLNKDSYIRPEFIVENDNPEKITTYSNMDTFEFSVSKSMLEDKLSQQ | not soluble
16 | MEGGSITPGEDKPEIQSPIPPNQIFILSGQSNMAGRGGVFKDHHNNRWVWDKILPPECAPNSSILRLSADLRWEEAHEPLHVDIDTGKVCGVGPGMAFANAVKNRLETDSAVIGLVPCASGGTAIKEWERGSHLYERMVKRTEESRKCGGEIKAVLWYQGESDVLDIHDAESYGNNMDRLIKNLRHDLNLPSLPIIQVAIASGGGYIDKVREAQLGLKLSNVVCVDAKGLPLKSDNLHLTTEAQVQLGLSLAQAYLSNFC | soluble
17 | MIDKHVACERPLTVYLNWRPIVTLMTLGAKPESLALGYLKNQGFISDVSQLESVIVDWGVNSAAVLTREQTADIDKKLSEKTVTSGCGQGTVYGSFMQDLEGIQLPRPSLKQSTLYSLLKNINEYNDTYKNAGAVHGCGVCEADQILAFVEDVGRHNAVDTLAGDMWLAQDRGDNKIFYTTGRLTSEMVIKVAKMGIPVLLSRSGVTQMGLELAQNLGITIIARAKGRHFLVYHGSENLEFDVNTSPSKLEHHHHHH | not soluble
18 | MGSDKIHHHHHHMYLALIGDIINSKQILERETFQQSFQQLMTELSDVYGEELISPFTITAGDEFQALLKPSKKVFQIIDHIQLALKPVNVRFGLGTGNIITSINSNESIGADGPAYWHARSAINHIHDKNDYGTVQVAICLDDEDQNLELTLNSLISAGDFIKSKWTTNHFQMLEHLILQDNYQEQFQHQKLAQLENIEPSALTKRLKASGLKIYLRTRTQAADLLVKSCTQTKGGSYDF | not soluble
19 | MSLGVLFSPPPASAYDGVEFLEFAVDEAVGARLGNWLKRLGFAEAGKHRSKEVQLLRQGDINIVLNAEPYSFGHNFFEAHGPSLCATALRVKDQQAALKRATAFRGQPFRGLVGPNECEVPAVRAPDGSLLYLVEQGTAGHTLYDTDFSLDNNATATGGLRRIDHMALALPAESLDSWVLFYKSLFDFAADDEVVLPDPYGLVKSRALRSQCGTLRLPLNISENRNTAIAHALSSYRGSGVHHIAFDCDDIFREVARAKLAGVPLLEIPLNYYDDLAARFDFDDEFLSELAYYNVLYDRDAQGGELFHVYTEPFEERFFFEIIQRKAGYAGYGAANVAVRLAAMAKARSGAARKEGHHHHHH | soluble
20 | MFKRTKLILIATLLLSGCSTTNNESNNETKSVPEEMEASKYVGQGFQPPAEKDAIEFAKKHRKEFEKVGEQFFKDNFGLKVKATNVVGKDDGIEVYVHCDDHGIVFNASLPLYKDAIHQKGSMRSNDNGDDMSMMVGTVLSGFEYRAQKEKYDNLYKFFKENEKKYQYTGFTKEAINKTQNVGYKNEYFYITYSSRSLKEYRKYYEPLIQKNDKEFKEGMERARKEVNYAADTDAVATLFSTKKNFTNDNTEDDVIELSDKLYNLKNKPDKSTITIQIGKPTINTKKAFYDDNRPIEYGVHSKGELEHHHHHH | not soluble
21 | MGSDKIHHHHHHMPVDWPLRFPQLSGGASRPHSSLASTCVGGLQELMQSCYPPRGGCWIAAVLEDAGVERVCGLLGKGHAGVVLLVEWRGVAAALKVRRRDSRRGSLEPEARVAEKAALAGAAPEVYGYGEEFIAMAPALGPSLQDLAEEGLLTPQHILASIEAAWALDNAGILHGELHRPWRNVLFNPRKALIIDYDSASSGCGNVVKLVSGISRRVPSLLGLVRSERFRDLAKRYYREGCGKATYMEMLDEVKKHISVI | not soluble
22 | MSLKVFQFKDWAVACDNIRHCEANGTQAGDGDNPVSLLLSRDAGPGSRLSAQLDVDDPDGDKVGKLTLKVGRIKWTGIDAEQAFSDAQTTQLLAAMLDADEVALADGKREWTLSLAGLKAALLKMDDVQGRVGTVGALVKKGGKPESAAPAAQPAPLLVPLAPPAARPGDQKLLPAILKQLRAVDKACWDELPDAEHPDVQLYRLSASQVLVLRECGRGAYQGSYKAWTSGDAPPFHPREVPLRGSDGKETFLMNASFDKGELSSYAKGRGIGDCGSGASWAWTGKDFKLMSAQEAPQCRGIAGGVSLRTWVTRQKEGHHHHHH | soluble
23 | MRILWILPYSPWPTTSGGKTRQYHLLRSLAARGHRITVLLHSKQPVSAEDRQALEPFLERLVVLPRRPLRSLSTLLAALFAPYPLLASVNGLSAELQRTATELLREPWDVVQVEHSYSFQPYERPLRDAGQPFVLTEHNVESSLGAATYDRLPGWALPFVRYDQWRYRRWERRVMSQAAAVVAVTEKDARQLGAMLGRPVPVVVNGVDCEHFATARPTPEAQRVLFLGNYEYAPNVDAVEWMLDEILPRVWAHCPEARMSVCGYALPAEWAQRWSDPRIEWQGFVPDLLQLQSSSSVFLAALRHGGGSKLKVLEALAAGLPLASTAQGVSGLELRDGEDYLGGESAEQLANAVVRLLQDPAQARALGENGRAYVRRAHDWSVAASQLEQVYAGLAEGAPACA | not soluble
